Test results from US9956304B2, “Contrast agents, methods for preparing contrast agents, and methods of imaging” (GEORGIA STATE UNIVERSITY RESEARCH FOUNDATION, INC., priority 2012, dated 2018).
Several values for one entry are separate records, joined by “and”; a condition that tells them apart may be missing. Equal values may be shown once.

How the values were obtained:
[1] = Gd3+ binding affinity by Tb3+-chelator buffer system and Gd3+ competition; settings: vs wild type protein scaffold
[2] = Water coordination number by Tb3+ luminescence lifetime; format: physicochemical; settings: Tb^3+ luminescence lifetime in H2O and D2O
Procedure: The water coordination number of Tb^3+ in ProCA was measured by Tb^3+ luminescence lifetime experiments. The determined water number for calcium-binding protein WT is 1.3, which is consistent with reported value^31.
Tb^3+ luminescent life time decay in H2O and D2O solvents is measured to characterize the water coordination number of the inner sphere of metal binding sites. WT calcium-binding protein has averaged water number of 1.3, which is consistent with reported value.

[3] = r1 and r2 relaxivity, mini-spec 60 MHz 37 C; format: physicochemical
[4] = r1 relaxivity at 7 T, inversion recovery; format: physicochemical; settings: room temperature
From the text: With the development of high field MRI scanner, there is a strong need to develop the contrast agents with high relaxivity in high magnetic field strength. However, the relaxivity of macromolecular contrast agents always has dramatic drop at high magnetic field. Caravan and Luther point out the contrast agents with optimized relaxivity in high field should have a rotation correlation time (τR) around 2 ns. We tested our Gd-calcium-binding protein variants in 7 T Varian MRI scanner using inversion recovery sequence. […] Other ProCA3s also have a per Gd r1 relaxivity around 20 mM^−1s^−1 at 7 T and room temperature.

[5] = In vitro MRI detection limit, T1-weighted spin echo at 7 T; format: physicochemical; settings: printed partly as 'at least'
From the text: Less contrast agents are acquired to acquired good image enhancement when the relaxivity of the contrast agent improved.

[6] = T1- and T2-weighted MRI of liver and blood vessels; format: in vivo, mice
Procedure: Because the enhanced T1- and T2-weighted images have different effects of imaging contrast (brighter or darker, respectively), there is an enhanced probability of detecting the targeted tumor tissue. In contrast, the currently available approved liver contrast agents such as Eovist® have a very short fast phase (sec.) and liver uptake phase (approximately 3 min) in human. The mouse halftime is much shorter. Due this limitation, with these agents, it is not possible to obtain both high quality imaging for small animal. For human, their applications are also limited by their low relaxivity and short half-life. It is possible to obtain very high quality imaging by applying our contrast agent to both low and high field strengths such as 0.47-9.4 T.
Longer blood circulation of ProCA will benefit the MRI guided intervention therapy […], since such therapy usually performed for a very long time. Long blood circulation time of ProCA32 in blood also promising for the application of DCE-MRI. Arterial input function (AIF) in DCE-MRI experiment is the key experiment for successful calculating tumor permeability. However, it is hard to accurate determine AIF of current clinically available MRI contrast agents, since the blood circulation time of current clinically available MRI contrast agents is too short. […]

[7] = Heat stability during purification; format: physicochemical
Procedure: These protein solutions were load to FPLC equipped with Hi-trap Q column. After binding to the column, the unbounded component was first washed with 7 column volumes (CV) of buffer A (10 mM HEPES buffer at pH 8.0). Then, buffer B (10 mM HEPES buffer, 1 M NaCl at pH 8.0) concentration was increased to 25% within 7 CV. The column was further washed with 25% of buffer B for 2 CV and then increase to 100% of buffer B of 1 CV to wash out every component bounded to the column. The fractions with ProCA32 elutions were determined by UV abs and SDS-PAGE.

[8] = mouse, in vivo
[9] = mouse, in vivo; remark: listed apart in the source
[10] = Serum stability (SDS-PAGE, mass spectrum, immuno-blot); settings: 50% serum

B1: ProCA32: parvalbumin-scaffold protein MRI contrast agent with two Gd3+ binding sites; calcium-binding protein variant (S56D, F103W) (protein)
chain: MSMTDLLNAEDIKKAVGAFSATDSFDHKKFFQMVGLKKKSADDVKKVFHMLDKDKDGFIEEDELGFILKGFSPDARDLSAKETKMLMAAGDKDGDGKIGVEEWSTLVAES
modifications: Gd3+ bound; ProCA3
[1]
  higher Tb^3+ and Gd^3+ binding affinity compared with wild type: 10^11 fold
[2]
  water coordination number: 0.4
[2]; listed as PROCA32
  water coordination number: 0.44
[3]
  per Gd r1: 30 mmol⁻¹ s⁻¹
  per particle r1: 60 mmol⁻¹ s⁻¹
[4]
  per Gd r1 relaxivity at 7 T: 18 mM⁻¹ s⁻¹
[5]
  concentration detectable in vitro by MRI: 2.5 µM and 2 µM
[6]; 7 min after tail vein injection
  liver in T2-weighted sequence: the liver became darker
[6]; 15 min
  liver in T1-weighted spin echo: the liver showing enhanced an MR signal
[7]
  heat stability: very stable at 90 °C
[8]
  clearance: about 0.13 l/kg
  excretion half-life: around 2.8 hours
[9]
  blood half-life longer than that of Gd-DTPA: more than 100 times
[10]
  stable in serum: at least 3 days
